Legend:
human KDR [1] = biological target: T1, human KDR (human, UniProt P35968 20-1356); assay: cell-based or functional assay
human KDR [2] = biological target: T1, human KDR; assay: cell-based or functional assay; remark: listed apart in the source
human KDR [3] = biological target: T1, human KDR; assay: cell-based or functional assay; remark: listed apart in the source
[4] = biological target: T2, whole KDR-ECD (Cat. # 676490, Calbiochem) (human, UniProt P35968 20-764); assay: ELISA, KDR-ECD coat 5 ug/mL, antibody 1 ug/mL
T2 construct: extracellular domain; Bought soluble protein; also called soluble KDR; VEGF Receptor 2 D1-7
T2 sequence (P35968 20-764): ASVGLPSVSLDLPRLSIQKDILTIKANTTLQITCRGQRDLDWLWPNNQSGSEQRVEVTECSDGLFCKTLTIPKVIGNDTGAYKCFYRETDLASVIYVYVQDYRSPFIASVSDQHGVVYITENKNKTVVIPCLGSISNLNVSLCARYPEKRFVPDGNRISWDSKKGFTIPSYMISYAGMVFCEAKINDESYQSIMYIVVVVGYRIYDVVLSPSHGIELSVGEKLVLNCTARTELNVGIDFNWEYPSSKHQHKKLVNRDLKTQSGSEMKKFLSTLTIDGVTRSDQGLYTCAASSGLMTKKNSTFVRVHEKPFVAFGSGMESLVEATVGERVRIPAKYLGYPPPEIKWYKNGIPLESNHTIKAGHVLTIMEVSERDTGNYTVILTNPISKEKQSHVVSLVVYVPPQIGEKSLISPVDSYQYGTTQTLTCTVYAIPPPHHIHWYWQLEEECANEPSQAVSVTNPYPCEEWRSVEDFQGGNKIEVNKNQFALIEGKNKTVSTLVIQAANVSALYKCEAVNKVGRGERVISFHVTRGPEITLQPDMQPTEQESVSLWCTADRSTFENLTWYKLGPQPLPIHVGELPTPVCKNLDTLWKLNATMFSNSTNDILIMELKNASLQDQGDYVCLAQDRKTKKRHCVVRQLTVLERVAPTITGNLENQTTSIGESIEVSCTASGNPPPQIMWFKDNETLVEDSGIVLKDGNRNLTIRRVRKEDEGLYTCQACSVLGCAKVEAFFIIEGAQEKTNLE
Method: (§1) The cross-reactivity of purified antibodies was tested against KDR mouse ortholog KDR mouse ortholog (mouse VEGFR2, or Flk-1) and human VEGFR1 (Flt-1). The ability of the antibodies to bind soluble KDR Ig4-7 domain and to the entire KDR extracellular domain (ECD) was also measured.
(§2) Cross-reactivity experiments were carried out and measured using an ELISA based assay as described in Example 6. […] Antibody controls included IgG1 and IgG4 (Sigma-Aldrich, Cat. #15154 and #14639, respectively).

[5] = biological target: T2, whole KDR-ECD (Cat. # 676490, …); assay: ELISA, KDR-ECD coat 5 ug/mL, antibody 0.1 ug/mL
Method: as §1, §2

[6] = biological target: T2, whole KDR-ECD (Cat. # 676490, …); assay: ELISA, KDR-ECD coat 5 ug/mL, antibody 0.01 ug/mL
Method: as §1, §2

soluble KDR Ig4-7 domain [7] = biological target: T3, soluble KDR Ig4-7 domain (human, UniProt P35968 328-764); assay: ELISA, KDR Ig4-7 coat (1:1 diln.), antibody 1 ug/mL
T3 construct: domain: Ig4-7 domain; also called b-KDRIg4-7-myc-his; Ig4-7 domain of KDR; not shown: myc-his tag of the pSecTag construct
T3 sequence (P35968 328-764): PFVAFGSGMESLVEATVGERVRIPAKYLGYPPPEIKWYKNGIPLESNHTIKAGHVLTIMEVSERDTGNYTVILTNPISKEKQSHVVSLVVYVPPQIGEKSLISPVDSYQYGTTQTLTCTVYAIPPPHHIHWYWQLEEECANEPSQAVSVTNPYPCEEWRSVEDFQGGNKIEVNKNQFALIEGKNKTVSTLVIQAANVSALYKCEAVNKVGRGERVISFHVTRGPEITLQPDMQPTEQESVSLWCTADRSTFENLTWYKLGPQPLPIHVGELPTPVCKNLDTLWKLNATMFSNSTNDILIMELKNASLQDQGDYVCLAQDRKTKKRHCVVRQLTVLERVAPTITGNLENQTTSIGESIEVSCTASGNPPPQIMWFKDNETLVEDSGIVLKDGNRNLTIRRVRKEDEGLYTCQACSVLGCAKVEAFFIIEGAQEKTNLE
Method: as §1, §2

soluble KDR Ig4-7 domain [8] = biological target: T3, soluble KDR Ig4-7 domain; assay: ELISA, KDR Ig4-7 coat (1:1 diln.), antibody 0.1 ug/mL
Method: as §1, §2

cynomolgus KDR = biological target: T4, cynomolgus KDR (cynomolgus monkey, UniProt A0A2K5VE63 20-1356); assay: FACS on Cyno KDR/293T transfectants, antibody 5 ug/mL
T4 construct: whole, on cells; also called Cyno KDR
T4 sequence (A0A2K5VE63 entry or part of it): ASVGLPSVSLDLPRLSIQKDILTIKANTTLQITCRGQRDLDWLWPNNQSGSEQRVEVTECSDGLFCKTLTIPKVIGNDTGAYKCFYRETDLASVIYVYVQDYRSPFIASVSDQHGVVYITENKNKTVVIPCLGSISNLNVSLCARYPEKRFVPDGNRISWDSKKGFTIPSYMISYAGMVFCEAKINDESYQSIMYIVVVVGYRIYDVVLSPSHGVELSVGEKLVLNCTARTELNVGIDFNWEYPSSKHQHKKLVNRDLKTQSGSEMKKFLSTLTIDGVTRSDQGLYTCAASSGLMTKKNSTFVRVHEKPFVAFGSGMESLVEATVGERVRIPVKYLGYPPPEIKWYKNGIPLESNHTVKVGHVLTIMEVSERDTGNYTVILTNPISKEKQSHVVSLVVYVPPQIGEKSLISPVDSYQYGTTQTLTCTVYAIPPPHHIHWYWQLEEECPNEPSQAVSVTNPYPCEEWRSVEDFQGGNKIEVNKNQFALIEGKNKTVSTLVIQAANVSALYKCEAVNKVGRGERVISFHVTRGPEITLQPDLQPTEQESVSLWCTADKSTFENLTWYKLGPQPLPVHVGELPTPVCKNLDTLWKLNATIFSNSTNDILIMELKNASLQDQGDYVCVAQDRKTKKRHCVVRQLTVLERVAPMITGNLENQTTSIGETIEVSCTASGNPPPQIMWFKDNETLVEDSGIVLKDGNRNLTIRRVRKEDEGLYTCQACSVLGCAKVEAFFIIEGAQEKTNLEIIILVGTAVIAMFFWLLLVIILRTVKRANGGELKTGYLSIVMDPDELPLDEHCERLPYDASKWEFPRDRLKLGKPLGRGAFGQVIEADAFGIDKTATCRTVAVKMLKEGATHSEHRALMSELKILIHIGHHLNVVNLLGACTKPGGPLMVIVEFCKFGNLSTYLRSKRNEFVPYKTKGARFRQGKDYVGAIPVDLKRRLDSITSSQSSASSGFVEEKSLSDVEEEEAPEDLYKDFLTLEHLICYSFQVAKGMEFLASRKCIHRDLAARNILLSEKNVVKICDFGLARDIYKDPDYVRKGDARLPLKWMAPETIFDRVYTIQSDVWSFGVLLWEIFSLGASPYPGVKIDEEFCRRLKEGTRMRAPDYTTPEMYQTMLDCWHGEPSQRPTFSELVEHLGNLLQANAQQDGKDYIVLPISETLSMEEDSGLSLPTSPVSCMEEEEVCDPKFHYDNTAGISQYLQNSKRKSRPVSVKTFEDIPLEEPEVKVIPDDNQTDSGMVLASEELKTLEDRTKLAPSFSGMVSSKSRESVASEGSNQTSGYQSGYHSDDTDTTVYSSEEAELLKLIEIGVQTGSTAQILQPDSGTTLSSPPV
Method: The binding of purified antibodies to cell-bound cynomolgus KDR (with parental cells as negative control) was tested by FACS analysis in this assay.
Cynomolgus KDR was cloned in 3 pieces. One piece was PCR amplified from cynomolgus lung cDNA, and the remaining two pieces were PCR amplified from cynomolgus kidney cDNA. The three PCR products were inserted into pCR3.1 Bid vector. […] Transfected cells were seeded at 50,000 cells/well and incubated with 5 μg/mL of candidate antibody for one hour at 4° C. The cells were then washed and incubated with secondary antibody (Cy5-conjugated goat anti-human antibody, or Cy5-conjugated rabbit anti-goat antibody, plus 7-Amino-Actinomycin (7AAD)) for 15 minutes at 4° C. Binding between cynomolgus KDR and purified antibody was detected by FACS analysis.

soluble KDR Ig4-7 domain [9] = biological target: T3, soluble KDR Ig4-7 domain; assay: ELISA, KDR Ig4-7 coat (1:1 diln.), antibody 0.01 ug/mL
Method: as §1, §2

human KDR [10] = biological target: T1, human KDR; assay: FACS titration of purified antibody on HUVEC cells (FACS Kd)
Method: The binding affinities of the purified antibodies for endogenously-expressed KDR in HUVEC cells was measured. HUVEC cells were seeded at 150,000 cells/well and incubated with titrations of purified antibody for 4 hours at 4° C. The cells were then washed and incubated with goat anti-human IgG-Fc-Cy5+5 μg/mL 7-Amino-Actinomycin (7AAD) for 30 minutes at 4° C. Bound KDR was detected using FACS analysis.

human KDR [11] = biological target: T1, human KDR; assay: FACS competition on 293T/human KDR transfectants; antibody 5 ug/mL first, then competitor VEGF165 50 ng/mL; bound VEGF165 detected
Method: (§3) Transfected cells were then seeded at 50,000 cells/well and incubated with 5 μg/mL of candidate antibody for one hour at 4° C. […] After washing, the cells were incubated with Cy5-conjugated rabbit anti-goat antibody plus 7AAD for 15 minutes at 4° C.

human KDR [12] = biological target: T1, human KDR; assay: FACS competition on 293T/human KDR transfectants; antibody 5 ug/mL first, then competitor VEGF165 50 ng/mL; inhibition of VEGF binding
Method: as §3

[13] = biological target: T5, mouse KDR (Flk-1)/Fc (Cat. #443-KD/CF, R&D Systems, Inc.) (mouse, UniProt P35918 20-762); assay: ELISA, Flk-1 coat 5 ug/mL, antibody 1 ug/mL
T5 construct: Bought reagent; also called mouse VEGFR2; KDR mouse ortholog; not shown: Fc of the bought fusion protein
T5 sequence (P35918 20-762 limits assumed): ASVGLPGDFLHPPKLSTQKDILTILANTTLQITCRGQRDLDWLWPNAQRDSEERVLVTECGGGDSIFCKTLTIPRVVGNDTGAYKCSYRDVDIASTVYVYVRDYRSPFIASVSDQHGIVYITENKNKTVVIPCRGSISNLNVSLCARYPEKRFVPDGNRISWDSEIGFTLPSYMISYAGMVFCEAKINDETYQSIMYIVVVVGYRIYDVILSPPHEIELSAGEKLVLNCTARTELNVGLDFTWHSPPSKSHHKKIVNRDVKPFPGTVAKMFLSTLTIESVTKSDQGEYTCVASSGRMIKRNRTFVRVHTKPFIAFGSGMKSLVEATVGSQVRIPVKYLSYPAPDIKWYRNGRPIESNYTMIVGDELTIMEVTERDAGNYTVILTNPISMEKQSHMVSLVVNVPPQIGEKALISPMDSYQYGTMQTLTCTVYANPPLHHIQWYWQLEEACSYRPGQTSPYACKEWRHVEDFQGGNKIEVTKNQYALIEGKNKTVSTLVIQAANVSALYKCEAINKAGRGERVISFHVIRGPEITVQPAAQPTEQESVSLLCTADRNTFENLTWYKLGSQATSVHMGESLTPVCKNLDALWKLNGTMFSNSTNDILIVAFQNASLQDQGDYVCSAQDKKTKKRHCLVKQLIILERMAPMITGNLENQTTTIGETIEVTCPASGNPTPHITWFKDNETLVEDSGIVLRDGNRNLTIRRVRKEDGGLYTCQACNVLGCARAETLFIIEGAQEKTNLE
Method: as §1, §2

[14] = biological target: T5, mouse KDR (Flk-1)/Fc (Cat. #443-KD/CF, …); assay: ELISA, Flk-1 coat 5 ug/mL, antibody 0.1 ug/mL
Method: as §1, §2

[15] = biological target: T5, mouse KDR (Flk-1)/Fc (Cat. #443-KD/CF, …); assay: ELISA, Flk-1 coat 5 ug/mL, antibody 0.01 ug/mL
Method: as §1, §2

T1 sequence (P35968 20-1356): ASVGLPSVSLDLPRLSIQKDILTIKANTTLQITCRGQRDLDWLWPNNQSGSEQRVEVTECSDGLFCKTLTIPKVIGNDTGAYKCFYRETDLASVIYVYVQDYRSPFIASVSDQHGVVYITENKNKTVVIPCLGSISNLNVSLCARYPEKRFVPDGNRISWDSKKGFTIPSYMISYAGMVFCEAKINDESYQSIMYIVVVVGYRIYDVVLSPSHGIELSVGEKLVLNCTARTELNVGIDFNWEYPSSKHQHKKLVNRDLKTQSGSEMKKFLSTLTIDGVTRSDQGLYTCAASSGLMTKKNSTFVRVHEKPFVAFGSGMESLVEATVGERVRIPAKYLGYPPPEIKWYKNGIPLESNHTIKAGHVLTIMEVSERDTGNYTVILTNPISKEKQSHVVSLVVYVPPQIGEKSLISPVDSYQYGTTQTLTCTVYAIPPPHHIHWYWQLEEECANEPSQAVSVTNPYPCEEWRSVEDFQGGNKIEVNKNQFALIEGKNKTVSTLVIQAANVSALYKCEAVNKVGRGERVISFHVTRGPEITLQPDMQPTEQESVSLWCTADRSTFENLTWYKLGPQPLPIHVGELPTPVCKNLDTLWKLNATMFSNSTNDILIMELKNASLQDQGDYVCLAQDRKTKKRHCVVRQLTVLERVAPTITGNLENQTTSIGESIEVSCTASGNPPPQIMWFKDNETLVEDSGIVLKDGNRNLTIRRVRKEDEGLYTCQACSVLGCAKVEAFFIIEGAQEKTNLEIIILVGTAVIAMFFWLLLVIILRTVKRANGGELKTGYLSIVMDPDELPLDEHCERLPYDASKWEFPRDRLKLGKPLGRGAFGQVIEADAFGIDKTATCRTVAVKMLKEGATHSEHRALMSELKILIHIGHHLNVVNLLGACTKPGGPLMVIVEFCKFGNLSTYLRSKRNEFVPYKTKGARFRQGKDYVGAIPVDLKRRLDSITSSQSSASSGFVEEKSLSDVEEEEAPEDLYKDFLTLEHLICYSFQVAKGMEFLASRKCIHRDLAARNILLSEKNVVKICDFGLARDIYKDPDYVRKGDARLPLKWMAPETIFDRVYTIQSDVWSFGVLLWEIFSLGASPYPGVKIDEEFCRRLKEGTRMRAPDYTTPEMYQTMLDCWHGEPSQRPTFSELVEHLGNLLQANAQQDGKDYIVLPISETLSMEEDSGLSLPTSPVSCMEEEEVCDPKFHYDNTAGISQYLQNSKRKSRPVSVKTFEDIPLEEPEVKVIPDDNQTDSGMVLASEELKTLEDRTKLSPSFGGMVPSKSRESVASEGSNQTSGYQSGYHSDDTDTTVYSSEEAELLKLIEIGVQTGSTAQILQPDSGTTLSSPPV

B1: 21H6 (antibody, V domains shown)
VH: QVQLVESGGGLVKPGGSLRLSCAASGFTFSDYYMSWIRQAPGKGLEWVSYISNSGITIYYADSVKGRFTISRDNAKNSLYLQMNSLRAGDTAVYYCAREEWYSSRWYRNFDYWGQGTLVTVSS
VL: DIQMTQFSSSLSASVGDRVTITCRASQSISRYLNWYQQKPGKAPKLLIYAASSLQSGVPSRFNGSGSGTDFTLTISSLQPEDFATYYCQQSYSAPLTFGGGTKVEIK
notes: Fully human monoclonal antibody from a XenoMouse hybridoma, purified
For B1, the “KDR tyrosine phosphorylation in HUVEC, EC50 (nM), Average” value (human KDR [1]) was 6.9 nM, the “KDR tyrosine phosphorylation in HUVEC, EC50 (nM), N = 1” value (human KDR [1]) was 7.1 nM and the “KDR tyrosine phosphorylation in HUVEC, EC50 (nM), N = 2” value (human KDR [1]) was 6.7 nM. For the same binder, the “KDR tyrosine phosphorylation in HUVEC, Maximum Inhibition at 100 nM (% Inhibition), Average” value (human KDR [1]) was 82%, the “KDR tyrosine phosphorylation in HUVEC, Maximum Inhibition at 100 nM (% Inhibition), N = 1” value (human KDR [1]) was 81% and the “KDR tyrosine phosphorylation in HUVEC, Maximum Inhibition at 100 nM (% Inhibition), N = 2” value (human KDR [1]) was 84%. The “HUVEC survival, Maximum Inhibition at 50 nM (% Inhibition), Average” value (human KDR [2]) was 96%, the “HUVEC survival, Maximum Inhibition at 50 nM (% Inhibition), N = 1” value (human KDR [2]) was 96% and the “HUVEC survival, Maximum Inhibition at 50 nM (% Inhibition), N = 2” value (human KDR [2]) was 96%. For the same binder, the “6-keto Prostaglandin F1α release, EC50 (nM), Average” value (human KDR [3]) was 6.3 nM, the “6-keto Prostaglandin F1α release, EC50 (nM), N = 1” value (human KDR [3]) was 7.3 nM and the “6-keto Prostaglandin F1α release, EC50 (nM), N = 2” value (human KDR [3]) was 5.4 nM. For the same binder, the “6-keto Prostaglandin F1α release, Maximum Inhibition (% Inhibition), Average” value (human KDR [3]) was 77%, the “6-keto Prostaglandin F1α release, Maximum Inhibition (% Inhibition), N = 1 (200 nM)” value (human KDR [3]) was 80% and the “6-keto Prostaglandin F1α release, Maximum Inhibition (% Inhibition), N = 2 (333 nM)” value (human KDR [3]) was 75%. For the same binder, the ELISA reading [4] was 1.46, the ELISA reading [5] was 0.139 and the ELISA reading [6] was 0.087. The ELISA reading (soluble KDR Ig4-7 domain [7]) was 0.087, the ELISA reading (soluble KDR Ig4-7 domain [8]) was 0.074 and the “FACS Geometric Mean Fluorescence” value (cynomolgus KDR) was 102. For the same binder, the ELISA reading (soluble KDR Ig4-7 domain [9]) was 0.074, the Kd (human KDR [10]) was 17.9 nM and the “FACS Geometric Mean Fluorescence (bound VEGF165)” value (human KDR [11]) was 133. For the same binder, the “% Inhibition” value (human KDR [12]) was -3%.

B2: 27D10 (antibody, V domains shown)
VH: QLQLQESGPGLVKPSETLSLTCTVSGGSISSRSDYWGWIRQPPGKGLEWIGTIYYSGSTFYNPSLKSRVTISVDTSKNQFSLKLSSVTAADTAVYYCARQQLVLYYFDYWGQGTLVTVSS
VL: not shown
notes: Fully human monoclonal antibody from a XenoMouse hybridoma (IgG2 or IgG4 strain), purified
In the case of B2, the “KDR tyrosine phosphorylation in HUVEC, EC50 (nM), Average” value (human KDR [1]) is reported as 1.9 nM, the “KDR tyrosine phosphorylation in HUVEC, EC50 (nM), N = 1” value (human KDR [1]) is reported as 1.6 nM and the “KDR tyrosine phosphorylation in HUVEC, EC50 (nM), N = 2” value (human KDR [1]) is reported as 2.3 nM. The “KDR tyrosine phosphorylation in HUVEC, Maximum Inhibition at 100 nM (% Inhibition), Average” value (human KDR [1]) was 72%, the “KDR tyrosine phosphorylation in HUVEC, Maximum Inhibition at 100 nM (% Inhibition), N = 1” value (human KDR [1]) was 70% and the “KDR tyrosine phosphorylation in HUVEC, Maximum Inhibition at 100 nM (% Inhibition), N = 2” value (human KDR [1]) was 75%. For the same binder, the “HUVEC survival, Maximum Inhibition at 50 nM (% Inhibition), Average” value (human KDR [2]) was 89%, the “HUVEC survival, Maximum Inhibition at 50 nM (% Inhibition), N = 1” value (human KDR [2]) was 93% and the “HUVEC survival, Maximum Inhibition at 50 nM (% Inhibition), N = 2” value (human KDR [2]) was 85%. For the same binder, the ELISA reading [13] was 2.14, the ELISA reading [14] was 1.48 and the ELISA reading [4] was 1.36. It also gave an ELISA reading [15] of 0.537, an ELISA reading [5] of 0.187 and an ELISA reading [6] of 0.087. The ELISA reading (soluble KDR Ig4-7 domain [7]) was 0.076, the ELISA reading (soluble KDR Ig4-7 domain [8]) was 0.086 and the “FACS Geometric Mean Fluorescence” value (cynomolgus KDR) was 89.4. The ELISA reading (soluble KDR Ig4-7 domain [9]) was 0.073, the Kd (human KDR [10]) was 1.9 nM and the “FACS Geometric Mean Fluorescence (bound VEGF165)” value (human KDR [11]) was 111. For the same binder, the “% Inhibition” value (human KDR [12]) was 15%.

— patent publication US20100260765A1 (AstraZeneca / MedImmune, published 2010)
